Test results as given in paper PMC10991500, “A multi-enzyme cascade for efficient production of D-p-hydroxyphenylglycine from L-tyrosine” (Bioresources and Bioprocessing, 2021).

Columns and labels:
[1] = test system: T1, PmL-AAD; assay: initial rates by HPLC, Michaelis-Menten fit; type: biochemical, Proteus mirabilis; details: 50 mM Tris-HCl pH 8.0, 30 °C; substrate 1-20 mM
T1 construct: recombinant in E. coli BL21(DE3), Tween 80 solubilised, HisTrap purified
From the text: initial rates by HPLC, Michaelis-Menten fit on PmL-AAD

[2] = substrate: O=C(O)[C@@H](O)c1ccc(O)cc1; assay: initial rates by HPLC, Michaelis-Menten fit; type: biochemical, Pseudomonas aeruginosa; details: 0.5 mM NADP+, 50 mM Tris-HCl pH 8.0, 30 °C, substrate 1-20 mM
From the text: initial rates by HPLC, Michaelis-Menten fit on PaMDH

[3] = substrate: O=C(O)C(=O)c1ccc(O)cc1; assay: initial rates of reductive amination, HPLC, Michaelis-Menten fit; type: biochemical, Corynebacterium glutamicum; details: 0.5 mM NADPH, 10 mM NH4Cl, 50 mM Tris-HCl pH 8.0, 30 °C, HPGA 1-20 mM
From the text: initial rates of reductive amination, HPLC, Michaelis-Menten fit on CgDAPDH^BC621

Molecule | Km [1] [mM] | Km [2] [mM] | kcat [2] [s⁻¹] | kcat/Km [2] [M⁻¹ s⁻¹] | Km [3] [mM] | kcat [3] [s⁻¹] | kcat/Km [3] [M⁻¹ s⁻¹]
N[C@@H](Cc1ccc(O)cc1)C(=O)O [L-tyrosine] | 2.94 ± 1.04 | – | – | – | – | – | –
PaMDH (Pseudomonas aeruginosa) (protein, recombinant in E. coli BL21(DE3), HisTrap purified) MSQNLFNVEDYRKLAQKRLPKMVYDYLEGGAEDEYGVKHNRDVFQQWRFKPKRLVDVSRRSLQAEVLGKRQSMPLLIGPTGLNGALWPKGDLALAQAATKAGIPFVLSTASNMSIEDLARQCDGDLWFQLYVIHREIAQGMVLKALHSGYTTLVLTTDVAVNGYRERDLHNRFKMPMSYTPKVMLDGCLHPRWSLDLVRHGMPQLANFVSSQTSSLEMQAALMSRQMDASFNWEALRWLRDLWPHKLLVKGLLSAEDADHCIAEGADGVILSNHGGRQLDCAVSPMEVLAQSVAKTGKPVLIDSGFRRGSDIVKALALGAEAVLLGRATLYGLAARGETGVDEVLTLLKADIDRTLAQIGCPDITSLSPDYLQSEGVTSTAPVDHLIGKGTHA | – | 0.89 ± 0.91 | 0.123 ± 0.0122 | 179 ± 3.67 | – | – | –
CgDAPDH^BC621 (Corynebacterium glutamicum ATCC 13032; D154G/H244N/Q150L/R195M/T169I) (protein, five-fold mutant BC621 in pET28a, recombinant in E. coli BL21(DE3), HisTrap purified) MTNIRVAIVGYGNLGRSVEKLIAKQPDMDLVGIFSRRATLDTKTPVFDVADVDKHADDVDVLFLCMGSATDIPEQAPKFAQFACTVDTYDNHRDIPRHRQVMNEAATAAGNVALVSTGWDPGMFSINRVYAAAVLAEHQQHTFWGPGLSLGHSGALRRIPGVQKAVQYILPSEDALEKARRGEAGDLTGKQTHKMQCFVVADAADHERIENDIRTMPDYFVGYEVEVNFIDEATFDSEHTGMPNGGHVITTGDTGGFNHTVEYILKLDRNPDFTASSQIAFGRAAHRMKQQGQSGAFTVLEVAPYLLSPENLDDLIARDV | – | – | – | – | 20.37 ± 0.19 | 0.00317 ± 0.00617 | 0.15
CgDAPDH^BC621 (Corynebacterium glutamicum ATCC 13032; D154G/H244N/Q150L/R195M/T169P) (protein, five-fold mutant BC621 in pET28a, recombinant in E. coli BL21(DE3), HisTrap purified) MTNIRVAIVGYGNLGRSVEKLIAKQPDMDLVGIFSRRATLDTKTPVFDVADVDKHADDVDVLFLCMGSATDIPEQAPKFAQFACTVDTYDNHRDIPRHRQVMNEAATAAGNVALVSTGWDPGMFSINRVYAAAVLAEHQQHTFWGPGLSLGHSGALRRIPGVQKAVQYPLPSEDALEKARRGEAGDLTGKQTHKMQCFVVADAADHERIENDIRTMPDYFVGYEVEVNFIDEATFDSEHTGMPNGGHVITTGDTGGFNHTVEYILKLDRNPDFTASSQIAFGRAAHRMKQQGQSGAFTVLEVAPYLLSPENLDDLIARDV | – | – | – | – | 8.17 ± 0.89 | 0.0247 ± 0.00417 | 3
CgDAPDH^BC621 (Corynebacterium glutamicum ATCC 13032; D120S/D154G/H244N/Q150L/R195M/T169P) (protein, five-fold mutant BC621 in pET28a, recombinant in E. coli BL21(DE3), HisTrap purified) MTNIRVAIVGYGNLGRSVEKLIAKQPDMDLVGIFSRRATLDTKTPVFDVADVDKHADDVDVLFLCMGSATDIPEQAPKFAQFACTVDTYDNHRDIPRHRQVMNEAATAAGNVALVSTGWSPGMFSINRVYAAAVLAEHQQHTFWGPGLSLGHSGALRRIPGVQKAVQYPLPSEDALEKARRGEAGDLTGKQTHKMQCFVVADAADHERIENDIRTMPDYFVGYEVEVNFIDEATFDSEHTGMPNGGHVITTGDTGGFNHTVEYILKLDRNPDFTASSQIAFGRAAHRMKQQGQSGAFTVLEVAPYLLSPENLDDLIARDV | – | – | – | – | 7.83 ± 0.03 | 0.0243 ± 0.0117 | 3.17
CgDAPDH^BC621 (Corynebacterium glutamicum ATCC 13032; D154G/H244N/Q150L/R195M/T169P/W144S) (protein, five-fold mutant BC621 in pET28a, recombinant in E. coli BL21(DE3), HisTrap purified) MTNIRVAIVGYGNLGRSVEKLIAKQPDMDLVGIFSRRATLDTKTPVFDVADVDKHADDVDVLFLCMGSATDIPEQAPKFAQFACTVDTYDNHRDIPRHRQVMNEAATAAGNVALVSTGWDPGMFSINRVYAAAVLAEHQQHTFSGPGLSLGHSGALRRIPGVQKAVQYPLPSEDALEKARRGEAGDLTGKQTHKMQCFVVADAADHERIENDIRTMPDYFVGYEVEVNFIDEATFDSEHTGMPNGGHVITTGDTGGFNHTVEYILKLDRNPDFTASSQIAFGRAAHRMKQQGQSGAFTVLEVAPYLLSPENLDDLIARDV | – | – | – | – | 8.07 ± 0.68 | 0.0225 ± 0.0232 | 2.83
CgDAPDH^BC621 (Corynebacterium glutamicum ATCC 13032; D120S/D154G/H244N/Q150L/R195M/T169P/W144S) (protein, five-fold mutant BC621 in pET28a, recombinant in E. coli BL21(DE3), HisTrap purified) MTNIRVAIVGYGNLGRSVEKLIAKQPDMDLVGIFSRRATLDTKTPVFDVADVDKHADDVDVLFLCMGSATDIPEQAPKFAQFACTVDTYDNHRDIPRHRQVMNEAATAAGNVALVSTGWSPGMFSINRVYAAAVLAEHQQHTFSGPGLSLGHSGALRRIPGVQKAVQYPLPSEDALEKARRGEAGDLTGKQTHKMQCFVVADAADHERIENDIRTMPDYFVGYEVEVNFIDEATFDSEHTGMPNGGHVITTGDTGGFNHTVEYILKLDRNPDFTASSQIAFGRAAHRMKQQGQSGAFTVLEVAPYLLSPENLDDLIARDV | – | – | – | – | 2.48 ± 0.28 | 0.0448 ± 0.005 | 18
